Assay results from patent US20010010923A1, “MODIFIED CARBOXYPEPTIDASE” (priority 1997, published 2001).
Marks after values point to notes of the source that are not given here.

Key:
[1] = Transamidation of FA-Arg-Ala-OH, Table 6; format: biochemical; conditions: [S] = 2 mM; H-Leu-NH2 375 mM; pH 7.5; [E] 0.1 mg/mL
[2] = Transamidation of Bz-G-A-R-A-R-A-OH, Table 6; format: biochemical; conditions: [S] = 2 mM; H-Leu-NH2 375 mM; pH 7.5; [E] 0.1 mg/mL
Experimental: (§1) Transamidation reactions were carried out generally as described in PCT Application WO 95/20039. In general, the method included dissolving the nucleophile (H-Leu-NH2, unless otherwise indicated) in 50 mM HEPES, 5 mM EDTA and adjusting the pH to 7.5, 5 μl of peptide substrate (8 mM Bz-G-A-R-A-R-A-OH, unless otherwise indicated, in methanol) was added to 190 μl nucleophile solution followed by 5 μl enzyme, […]
(§2) During the reaction, 20 μl aliquots were removed from the reaction mixture and added to 50 μl 1% trifluoroacetic acid to quench the reaction. The reactant composition was determined by HPLC using a Waters HPLC equipped with a C-18 Waters Novapac 4μ reverse phase column and various gradients of acetonitrile in 0.1% trifluoroacetic acid. The separation was monitored at 254 nm allowing the direct quantification of the products from the integrated peak areas. The composition of the reaction mixture was determined at least twvice during the reaction, the first when 20-50% (preferably 35%) of the substrate had been consumed in the reaction and the second time when 50-90% (preferably 80%) of the peptide substrate had been consumed.
(§3) The fraction of aminolysis (fa) was expressed as the ratio between the formed aminolysis product and the sum of all products formed. Unconsumed substrate was disregarded in the calculations.
Site specific mutagenesis was performed as described for Example 1 to generate the specific mutants described below. Transamidation reactions were performed as described in the previous examples.

[3] = Transpeptidation of Bz-G-A-R-A-R-X-OH at pH 6.5 at 50% substrate consumption, Table 5; format: biochemical; set-up: key to fa: fa = aminolysis product / sum of all products formed; conditions: for Pmax (peak product yield) / fa: 750 mM H-Leu-NH2; for fa / t: 50% substrate consumption; for t: 750 mM H-Leu-NH2, 2 mM substrate, [E] 0.1 mg/mL
Experimental: Transamidation reactions were carried out generally as described in PCT Application WO 95/20039. In general, the method included dissolving the nucleophile (H-Leu-NH2, unless otherwise indicated) in 50 mM HEPES, […], 5 μl of peptide substrate (8 mM Bz-G-A-R-A-R-A-OH, unless otherwise indicated, in methanol) was added to 190 μl nucleophile solution followed by 5 μl enzyme, resulting in a substrate concentration of 0.2 mM.
as §2
The fraction of aminolysis (fa) was expressed as the ratio between the formed aminolysis product and the sum of all products formed. Unconsumed substrate was disregarded in the calculations. […]

[4] = Transamidation of Bz-G-A-R-A-R-A-OH, Table 6; format: biochemical; conditions: [S] = 2 mM; H-Leu-NH2 375 mM; pH 7.5; [E] 0.1 mg/mL; remark: listed apart in the source
[5] = Transpeptidation of Bz-G-A-R-A-R-X-OH at pH 7.5 at 50% substrate consumption, Table 4; format: biochemical; set-up: key to fa: fraction: aminolysis product / sum of all products formed; conditions: for Pmax (peak product yield) / fa: 375 mM H-Leu-NH2
Method in brief: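 Transamidation was performed by dissolving the H-Leu-NH2 nucleophile in 50 mM HEPES with 5 mM EDTA at pH 7.5, then adding the Bz-G-A-R-A-R-X-OH peptide substrate in methanol followed by enzyme. Aliquots were quenched in 1% trifluoroacetic acid and analysed by C-18 reverse-phase HPLC at 254 nm. The fraction of aminolysis was the aminolysis product divided by all products formed.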

[6] = Transpeptidation of Bz-G-A-R-A-R-A-OH (arginine at P1) with H-Leu-NH2, Table 1; format: biochemical; conditions: [N] 375 mM H-Leu-NH2; 2mM substrate; pH 7.5; [E] 0.1 mg/mL
Experimental: The mutant carboxypeptidase enzvmes used in these studies were produced by site-directed mutagenesis, essentially following the procedures described in published PCT Patent Application No. WO 95/20039. In general, oligonucleotides synthesized to encode the amino acid substitution were used to produce the mutant enzymes.
as §1, §2
The reaction products were collected and identified by amino acid analysis after acid hydrolysis using a Pharmacia Alpha Plus analyzer. Further identification was obtained by co-chromatography of authentic standard compounds.
as §3

[7] = Transpeptidation of FA-Ala-OBzl with H-Leu-NH2, Table 3; format: biochemical; conditions: FA-Ala-OBzl 0.2 mM; H-Leu-NH2; pH 7.5
Method in brief: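 Site-directed mutant enzymes were reacted with H-Leu-NH2 in 50 mM HEPES, 5 mM EDTA, pH 7.5, with acyl-donor substrate at 0.2 mM final. Products were quantified by C-18 RP-HPLC at 254 nm at about 35% and 80% substrate consumption. fa is aminolysis product over all products; famax is fa at nucleophile saturation, and KN(app) is the nucleophile concentration giving famax/2.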

[8] = Transpeptidation of FA-Ala-Xaa-OH with H-Gly-NH2, Table 2; format: biochemical; conditions: 1.9 M H-Gly-NH2, pH 7.5, room temperature
Method in brief: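 Enzyme reacted with 0.2 mM peptide substrate and nucleophile in 50 mM HEPES, 5 mM EDTA, pH 7.5; aliquots quenched in 1% TFA. Products quantified by reverse-phase HPLC at 254 nm at two conversion points (20-50% and 50-90% substrate consumed). Fraction of aminolysis = aminolysis product over all products, ignoring unconsumed substrate.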

[9] = ratio of hydrolysis rates, background statement; cited from earlier work
[10] = leaving group A, 50% substrate consumption
[11] = leaving group A, 50% substrate consumption, 375 mM H-Leu-NH2, 2 mM substrate, [E] 0.1 mg/mL
[12] = leaving group I, 50% substrate consumption
[13] = leaving group L, 50% substrate consumption
[14] = leaving group M, 50% substrate consumption
[15] = leaving group V, 50% substrate consumption

B1: L178S: carboxypeptidase Y S1 mutant, substitution L178S (protein, UniProt P00729 112-532, looked up, variant L178S)
Carboxypeptidase Y: KIKDPKILGIDPNVTQYTGYLDVEDEDKHFFFWTFESRNDPAKDPVILWLNGGPGCSSLTGLFFELGPSSIGPDLKPIGNPYSWNSNATVIFLDQPVNVGFSYSGSSGVSNTVAAGKDVYNFLELFFDQFPEYVNKGQDFHIAGESYAGHYIPVFASEILSHKDRNFNLTSVLIGNGSTDPLTQYNYYEPMACGEGGEPSVLPSEECSAMEDSLERCLGLIESCYDSQSVWSCVPATIYCNNAQLAPYQRTGRNVYDIRKDCEGGNLCYPTLQDIDDYLNQDYVKEAVGAEVDHYESCNFDINRNFLFAGDWMKPYHTAVTDLLNQDLPILVYAGDKDFICNWLGNKAWTDVLPWKYDEEFASQKVRNWTASITDEVAGEVKSYKHFTYLRVFNGGHMVPFDVPENALSMVNEWIHGGFSL
- Pmax [1]: 0.76
- fa [1]: 0.89
- Pmax [2]: 0.61
- Pmax (peak product yield) ([3]; leaving group A): 0.74
- fa ([3]; leaving group A): 0.79
- t ([3]; leaving group A): 34 min
- Pmax (peak product yield) ([3]; leaving group L): 0.03
- fa ([3]; leaving group L): 0.03
- t ([3]; leaving group L): 17 min
- Pmax (peak product yield) ([3]; leaving group S): 0.63
- fa ([3]; leaving group S): 0.34
- t ([3]; leaving group S): 108 min
- fa [4]: 0.77
- Pmax (peak product yield) ([5]; leaving group A): 0.63
- fa [5, 10]: 0.73
- t [5, 11]: 14 min
- Pmax (peak product yield) ([5]; leaving group I): 0
- fa [5, 12]: 0
- t ([5]; leaving group I, 50% substrate consumption, 375 mM H-Leu-NH2, 2 mM substrate, [E] 0.1 mg/mL): 26 min
- Pmax (peak product yield) ([5]; leaving group L): 0.01
- fa [5, 13]: 0.01
- t ([5]; leaving group L, 50% substrate consumption, 375 mM H-Leu-NH2, 2 mM substrate, [E] 0.1 mg/mL): 2.1 min
- Pmax (peak product yield) ([5]; leaving group M): 0
- fa [5, 14]: 0
- t ([5]; leaving group M, 50% substrate consumption, 375 mM H-Leu-NH2, 2 mM substrate, [E] 0.1 mg/mL): 28 min
- Pmax (peak product yield) ([5]; leaving group S): 0.38
- fa ([5]; leaving group S, 50% substrate consumption): 0.65
- t ([5]; leaving group S, 50% substrate consumption, 375 mM H-Leu-NH2, 2 mM substrate, [E] 0.1 mg/mL): 790 min
- Pmax (peak product yield) ([5]; leaving group V): 0
- fa [5, 15]: 0
- t ([5]; leaving group V, 50% substrate consumption, 375 mM H-Leu-NH2, 2 mM substrate, [E] 0.1 mg/mL): 40 min
- fa (fraction of aminolysis) [6]: 0.72

B2: Wild type: wild type (native) carboxypeptidase Y (protein, UniProt P00729 112-532, looked up)
Carboxypeptidase Y: KIKDPKILGIDPNVTQYTGYLDVEDEDKHFFFWTFESRNDPAKDPVILWLNGGPGCSSLTGLFFELGPSSIGPDLKPIGNPYSWNSNATVIFLDQPVNVGFSYSGSSGVSNTVAAGKDVYNFLELFFDQFPEYVNKGQDFHIAGESYAGHYIPVFASEILSHKDRNFNLTSVLIGNGLTDPLTQYNYYEPMACGEGGEPSVLPSEECSAMEDSLERCLGLIESCYDSQSVWSCVPATIYCNNAQLAPYQRTGRNVYDIRKDCEGGNLCYPTLQDIDDYLNQDYVKEAVGAEVDHYESCNFDINRNFLFAGDWMKPYHTAVTDLLNQDLPILVYAGDKDFICNWLGNKAWTDVLPWKYDEEFASQKVRNWTASITDEVAGEVKSYKHFTYLRVFNGGHMVPFDVPENALSMVNEWIHGGFSL
- fa [7]: 0.95^a
- Fraction of aminolysis (fa), P1' Ala ([8]; FA-Ala-Ala-OH 0.2 mM): 0.90
- Fraction of aminolysis (fa), P1' Leu ([8]; FA-Ala-Leu-OH 0.2 mM): 0.20
- Fraction of aminolysis (fa), P1' Met ([8]; FA-Ala-Met-OH 0.2 mM): 0.18
- Fraction of aminolysis (fa), P1' Phe ([8]; FA-Ala-Phe-OH 0.2 mM): 0.04
- Fraction of aminolysis (fa), P1' Val ([8]; FA-Ala-Val-OH 0.2 mM): 0.16
- Pmax (peak product yield) ([5]; leaving group A): 0
- fa [5, 10]: <0.05
- t(min) [5, 11]: ca. 110000 min
- Pmax (peak product yield) ([5]; leaving group I): 0
- fa [5, 12]: <0.05
- Pmax (peak product yield) ([5]; leaving group L): 0
- fa [5, 13]: <0.05
- Pmax (peak product yield) ([5]; leaving group M): 0
- fa [5, 14]: <0.05
- Pmax (peak product yield) ([5]; leaving group V): 0
- fa [5, 15]: <0.05
- FA-Arg-Ala-OH hydrolyzed more slowly than FA-Leu-Ala-OH [9]: about 500 times
- fa (fraction of aminolysis) [6]: 0.05
